The target of this experiment is T1, p80 TNFR (endogenous) (UniProt P20333 23-461, limits assumed).
T1 construct: whole, on cells; also called TNFR2; p75
T1 sequence (looked up): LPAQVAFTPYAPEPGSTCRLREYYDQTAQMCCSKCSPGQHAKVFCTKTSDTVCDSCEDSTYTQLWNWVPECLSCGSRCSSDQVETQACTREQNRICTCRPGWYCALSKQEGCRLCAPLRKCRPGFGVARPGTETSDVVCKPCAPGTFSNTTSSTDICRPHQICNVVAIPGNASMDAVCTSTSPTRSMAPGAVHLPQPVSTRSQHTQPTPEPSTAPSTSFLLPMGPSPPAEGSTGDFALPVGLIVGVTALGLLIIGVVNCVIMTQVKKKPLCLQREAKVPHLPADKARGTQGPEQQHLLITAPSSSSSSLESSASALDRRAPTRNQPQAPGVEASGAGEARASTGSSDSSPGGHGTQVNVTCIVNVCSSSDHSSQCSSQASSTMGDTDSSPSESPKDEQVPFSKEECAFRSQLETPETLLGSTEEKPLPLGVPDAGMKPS
In words: DTSSP crosslinking of H9 cells, anti-p60 immunoprecipitation, Western blot. The protocol:
H9 lymphoma cells were washed and resuspended in PBS. […] Cells were then treated with 2 mM of the crosslinker DTSSP (Pierce) for 30 minutes and the reaction was quenched with 20 mM Tris.Cl [pH 7.5] for 15 minutes on ice. The cells were lysed in 150 mM NaCl, 20 mM Tris.Cl [pH 7.5], 1 mM EDTA, 30 mM NaF, 2 mM b-glycerophosphate and 1 mM sodium orthovanadate with protease inhibitors added (Boehringer Mannheim). […] Densitometry was performed with a Kodak Image Station 440.

Here are results for one molecule from patent US20030108992A1 (US Dept. of Health and Human Services, published 2003).

B1: p60 TNFR (endogenous) (receptor, UniProt P19438 30-455, looked up)
chain: LVPHLGDREKRDSVCPQGKYIHPQNNSICCTKCHKGTYLYNDCPGPGQDTDCRECESGSFTASENHLRHCLSCSKCRKEMGQVEISSCTVDRDTVCGCRKNQYRHYWSENLFQCFNCSLCLNGTVHLSCQEKQNTVCTCHAGFFLRENECVSCSNCKKSLECTKLCLPQIENVKGTEDSGTTVLLPLVIFFGLCLLSLLFIGLMYRYQRWKSKLYSIVCGKSTPEKEGELEGTTTKPLAPNPSFSPTPGFTPTLGFSPVPSSTFTSSSTYTPGDCPNFAAPRREVAPPYQGADPILATALASDPIPNPLQKWEDSAHKPQSLDTDDPATLYAVVENVPPLRWKEFVRRLGLSDHEIDRLELQNGRCLREAQYSMLATWRRRTPRREATLELLGRVLRDMDLLGCLEDIEEALCGPAALPPAPSLLR
notes: whole, on cells; also called endogenous p60 receptor; TNFR1
Take B1: the binding result is reported as “no binding”.
